T1: eYFP-PLCβ1 S887D (UniProt P10687 1-1216, S887D)
T1 sequence (looked up): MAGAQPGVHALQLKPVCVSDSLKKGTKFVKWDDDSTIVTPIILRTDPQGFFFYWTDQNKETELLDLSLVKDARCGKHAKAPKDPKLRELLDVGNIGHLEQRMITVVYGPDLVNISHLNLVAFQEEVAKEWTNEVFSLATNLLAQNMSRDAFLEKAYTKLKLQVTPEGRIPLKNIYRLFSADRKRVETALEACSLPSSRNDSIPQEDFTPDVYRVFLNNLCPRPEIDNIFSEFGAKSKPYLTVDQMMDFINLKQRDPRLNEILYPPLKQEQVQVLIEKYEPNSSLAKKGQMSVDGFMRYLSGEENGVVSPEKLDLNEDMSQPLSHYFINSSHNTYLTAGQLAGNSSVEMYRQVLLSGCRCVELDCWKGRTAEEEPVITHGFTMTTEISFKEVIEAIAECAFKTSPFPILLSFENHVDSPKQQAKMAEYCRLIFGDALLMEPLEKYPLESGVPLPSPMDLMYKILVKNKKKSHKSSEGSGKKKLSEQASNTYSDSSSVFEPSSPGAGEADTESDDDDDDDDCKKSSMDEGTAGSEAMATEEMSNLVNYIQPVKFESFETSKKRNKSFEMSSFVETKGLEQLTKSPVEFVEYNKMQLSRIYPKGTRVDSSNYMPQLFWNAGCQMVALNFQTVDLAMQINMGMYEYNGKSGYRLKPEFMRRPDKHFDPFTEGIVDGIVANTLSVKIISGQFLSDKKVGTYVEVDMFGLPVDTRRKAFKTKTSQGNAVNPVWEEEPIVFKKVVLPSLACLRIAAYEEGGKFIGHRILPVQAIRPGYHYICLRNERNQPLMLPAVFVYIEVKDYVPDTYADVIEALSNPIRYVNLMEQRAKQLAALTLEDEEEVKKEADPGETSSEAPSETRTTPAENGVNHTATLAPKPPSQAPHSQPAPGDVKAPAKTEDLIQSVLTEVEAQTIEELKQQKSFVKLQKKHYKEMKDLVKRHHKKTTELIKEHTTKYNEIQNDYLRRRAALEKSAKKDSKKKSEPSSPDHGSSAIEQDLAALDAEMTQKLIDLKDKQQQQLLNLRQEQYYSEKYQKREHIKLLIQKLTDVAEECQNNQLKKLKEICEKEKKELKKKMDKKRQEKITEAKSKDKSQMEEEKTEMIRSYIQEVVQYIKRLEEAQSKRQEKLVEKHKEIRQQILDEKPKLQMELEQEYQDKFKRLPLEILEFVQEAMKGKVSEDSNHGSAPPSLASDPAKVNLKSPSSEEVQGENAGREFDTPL

T2: eYFP-PLCβ1 S887A (UniProt P10687 1-1216, S887A)
T2 sequence (looked up): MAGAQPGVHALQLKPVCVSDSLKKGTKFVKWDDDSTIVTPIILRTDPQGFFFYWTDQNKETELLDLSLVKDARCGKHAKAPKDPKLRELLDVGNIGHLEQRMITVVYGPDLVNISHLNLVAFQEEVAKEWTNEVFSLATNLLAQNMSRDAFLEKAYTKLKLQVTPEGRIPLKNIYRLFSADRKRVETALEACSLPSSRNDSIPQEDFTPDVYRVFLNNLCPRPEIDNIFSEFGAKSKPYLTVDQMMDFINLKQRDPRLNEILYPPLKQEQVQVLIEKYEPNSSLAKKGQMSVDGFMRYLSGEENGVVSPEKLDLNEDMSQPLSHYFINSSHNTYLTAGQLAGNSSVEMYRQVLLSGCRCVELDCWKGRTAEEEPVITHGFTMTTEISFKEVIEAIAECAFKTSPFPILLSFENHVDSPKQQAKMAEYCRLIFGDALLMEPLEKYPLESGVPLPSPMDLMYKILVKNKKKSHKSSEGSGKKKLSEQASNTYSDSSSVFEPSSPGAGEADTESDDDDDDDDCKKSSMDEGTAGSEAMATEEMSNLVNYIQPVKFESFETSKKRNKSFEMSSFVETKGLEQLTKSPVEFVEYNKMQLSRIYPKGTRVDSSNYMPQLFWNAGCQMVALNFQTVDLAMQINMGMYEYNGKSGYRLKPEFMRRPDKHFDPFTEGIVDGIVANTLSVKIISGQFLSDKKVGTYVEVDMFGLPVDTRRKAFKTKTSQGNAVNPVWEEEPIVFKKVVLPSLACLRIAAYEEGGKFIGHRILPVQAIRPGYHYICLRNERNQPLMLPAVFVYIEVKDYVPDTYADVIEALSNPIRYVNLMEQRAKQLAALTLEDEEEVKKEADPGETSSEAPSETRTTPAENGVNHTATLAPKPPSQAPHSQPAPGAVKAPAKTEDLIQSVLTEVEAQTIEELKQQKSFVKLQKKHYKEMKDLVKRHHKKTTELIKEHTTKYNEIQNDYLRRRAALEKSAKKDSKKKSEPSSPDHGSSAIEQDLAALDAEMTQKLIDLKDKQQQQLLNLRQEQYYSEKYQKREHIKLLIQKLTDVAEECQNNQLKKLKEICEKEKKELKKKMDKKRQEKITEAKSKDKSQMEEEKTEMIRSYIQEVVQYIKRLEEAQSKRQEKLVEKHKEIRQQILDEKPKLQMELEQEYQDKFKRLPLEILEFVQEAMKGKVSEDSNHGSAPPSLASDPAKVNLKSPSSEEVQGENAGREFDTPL

T3: eYFP-PLCβ1 (wild type phospholipase Cβ1) (UniProt P10687 1-1216)
T3 sequence (looked up): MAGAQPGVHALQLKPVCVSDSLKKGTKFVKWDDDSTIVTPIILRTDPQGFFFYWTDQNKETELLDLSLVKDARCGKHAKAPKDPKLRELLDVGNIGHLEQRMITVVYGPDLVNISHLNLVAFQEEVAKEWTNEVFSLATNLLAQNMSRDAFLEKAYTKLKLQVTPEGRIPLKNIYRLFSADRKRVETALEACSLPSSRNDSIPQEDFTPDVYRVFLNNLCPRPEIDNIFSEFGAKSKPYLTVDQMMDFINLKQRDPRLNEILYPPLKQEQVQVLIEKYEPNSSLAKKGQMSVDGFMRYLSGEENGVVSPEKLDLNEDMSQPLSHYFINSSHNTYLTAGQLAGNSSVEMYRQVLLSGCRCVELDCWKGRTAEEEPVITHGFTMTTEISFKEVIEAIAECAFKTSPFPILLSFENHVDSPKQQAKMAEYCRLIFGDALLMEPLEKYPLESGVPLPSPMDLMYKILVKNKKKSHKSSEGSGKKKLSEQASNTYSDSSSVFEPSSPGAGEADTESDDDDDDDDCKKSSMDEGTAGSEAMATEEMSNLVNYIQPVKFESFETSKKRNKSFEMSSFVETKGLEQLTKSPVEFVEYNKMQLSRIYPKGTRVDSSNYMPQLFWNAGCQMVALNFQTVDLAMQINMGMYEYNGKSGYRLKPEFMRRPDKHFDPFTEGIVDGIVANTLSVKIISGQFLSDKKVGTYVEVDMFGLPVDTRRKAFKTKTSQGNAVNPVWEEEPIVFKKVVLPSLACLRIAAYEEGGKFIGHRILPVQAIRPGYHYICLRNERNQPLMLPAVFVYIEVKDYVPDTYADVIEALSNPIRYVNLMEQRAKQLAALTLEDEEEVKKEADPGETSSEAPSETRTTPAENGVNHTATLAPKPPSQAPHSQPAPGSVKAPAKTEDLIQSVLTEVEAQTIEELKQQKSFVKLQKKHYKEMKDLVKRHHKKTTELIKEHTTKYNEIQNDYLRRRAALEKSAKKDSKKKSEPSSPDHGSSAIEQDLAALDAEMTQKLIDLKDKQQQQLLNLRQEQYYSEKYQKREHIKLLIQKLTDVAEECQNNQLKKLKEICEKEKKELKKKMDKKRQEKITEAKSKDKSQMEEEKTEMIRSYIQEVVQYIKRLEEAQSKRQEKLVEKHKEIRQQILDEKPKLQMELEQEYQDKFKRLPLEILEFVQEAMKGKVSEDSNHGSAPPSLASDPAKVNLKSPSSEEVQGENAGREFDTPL


Experiments:
[1] = biological target: Gαq; assay: eCFP/eYFP FRET in living cells, basal; conditions: sites S887
[2] = biological target: T1, eYFP-PLCβ1 S887D; assay: FRET or BRET
[3] = biological target: T2, eYFP-PLCβ1 S887A; assay: FRET or BRET
[4] = biological target: T3, eYFP-PLCβ1 (wild type phospholipase Cβ1); assay: FRET or BRET

| other: FRET efficiency ([1]; reference: wild type) | other: FRET efficiency ([1]; reference: S887A) | FRET efficiency [2] | FRET efficiency [3] | FRET efficiency [4] | Molecule |
| --- | --- | --- | --- | --- | --- |
| same; reference 38±4 | – | – | – | – | PLCβ1 S887A |
| same; reference 38±4 | same; reference 30±6 | – | – | – | PLCβ1 S887D |
| – | – | 39 ± 3% | 30 ± 6% | 38 ± 4% | eCFP-Gαq (natural protein, UniProt P21279 1-359, looked up) MTLESIMACCLSEEAKEARRINDEIERQLRRDKRDARRELKLLLLGTGESGKSTFIKQMRIIHGSGYSDEDKRGFTKLVYQNIFTAMQAMIRAMDTLKIPYKYEHNKAHAQLVREVDVEKVSAFENPYVDAIKSLWNDPGIQECYDRRREYQLSDSTKYYLNDLDRVADPSYLPTQQDVLRVRVPTTGIIEYPFDLQSVIFRMVDVGGQRSERRKWIHCFENVTSIMFLVALSEYDQVLVESDNENRMEESKALFRTIITYPWFQNSSVILFLNKKDLLEEKIMYSHLVDYFPEYDGPQRDAQAAREFILKMFVDLNPDSDKIIYSHFTCATDTENIRFVFAAVKDTILQLNLKEYNLV |
